Measurements published in patent US20200024330A1.

Experiments:
Experiment in all cases: cell-based or functional assay
[1] = biological target: HIV-1 Env of isolate JRFL (HIV-1)
[2] = biological target: HIV-1 Env of isolate MGRM-AE-007 (HIV-1)
[3] = biological target: HIV-1 Env of isolate MGRM-AE-008 (HIV-1)
[4] = biological target: HIV-1 Env of isolate MGRM-AG-001 (HIV-1)
[5] = biological target: HIV-1 Env of isolate MGRM-AG-002 (HIV-1)
[6] = biological target: HIV-1 Env of isolate MGRM-AG-003 (HIV-1)
[7] = biological target: HIV-1 Env of isolate MGRM-AG-005 (HIV-1)
[8] = biological target: HIV-1 Env of isolate MGRM-AG-006 (HIV-1)
[9] = biological target: HIV-1 Env of isolate MGRM-AG-008 (HIV-1)
[10] = biological target: HIV-1 Env of isolate MGRM-AG-009 (HIV-1)
[11] = biological target: HIV-1 Env of isolate MGRM-AG-011 (HIV-1)
[12] = biological target: HIV-1 Env of isolate MGRM-AG-012 (HIV-1)
[13] = biological target: HIV-1 Env of isolate MGRM-AG-013 (HIV-1)
[14] = biological target: HIV-1 Env of isolate MGRM-Chronic-B-010 (HIV-1)
[15] = biological target: HIV-1 Env of isolate MGRM-Chronic-B-011 (HIV-1)
[16] = biological target: HIV-1 Env of isolate MGRM-Chronic-B-012 (HIV-1)
[17] = biological target: HIV-1 Env of isolate MGRM-Chronic-B-017 (HIV-1)
[18] = biological target: HIV-1 Env of isolate MGRM-Chronic-B-018 (HIV-1)
[19] = biological target: HIV-1 Env of isolate MGRM-Chronic-B-020 (HIV-1)
[20] = biological target: HIV-1 Env of isolate MGRM-Chronic-B-023 (HIV-1)
[21] = biological target: HIV-1 Env of isolate MGRM-Chronic-B-024 (HIV-1)
[22] = biological target: HIV-1 Env of isolate MGRM-F1-016 (HIV-1)
[23] = biological target: HIV-1 Env of isolate SC422661.8 (HIV-1)
[24] = biological target: aMLV envelope (negative control pseudovirus)
[25] = biological target: HIV-1 Env of isolate MGRM-AE-004 (HIV-1)
[26] = biological target: HIV-1 Env of isolate MGRM-AE-005 (HIV-1)
[27] = biological target: HIV-1 Env of isolate MGRM-AE-006 (HIV-1)
[28] = biological target: HIV-1 Env of isolate MGRM-G-001 (HIV-1)
[29] = biological target: HIV-1 Env of isolate MGRM-G-004 (HIV-1)
[30] = biological target: HIV-1 Env of isolate MGRM-G-006 (HIV-1)
[31] = biological target: HIV-1 Env of isolate MGRM-G-009 (HIV-1)
[32] = biological target: HIV-1 Env of isolate MGRM-G-011 (HIV-1)
[33] = biological target: HIV-1 Env of isolate MGRM-G-013 (HIV-1)
[34] = biological target: HIV-1 Env of isolate MGRM-G-014 (HIV-1)
[35] = biological target: HIV-1 Env of isolate MGRM-G-015 (HIV-1)
[36] = biological target: HIV-1 Env of isolate MGRM-G-016 (HIV-1)
[37] = biological target: HIV-1 Env of isolate MGRM-G-017 (HIV-1)
[38] = biological target: HIV-1 Env of isolate MGRM-G-019 (HIV-1)
[39] = biological target: HIV-1 Env of isolate MGRM-G-027 (HIV-1)
[40] = biological target: HIV-1 JR-CSF Env D477A (HIV-1 (isolate JR-CSF)) (UniProt P20871)
[41] = biological target: HIV-1 92TH021 envelope glycoprotein (Env) on pseudovirus (HIV-1)
[42] = biological target: HIV-1 92UG024 envelope glycoprotein (Env) on pseudovirus (HIV-1)
[43] = biological target: HIV-1 NL43 envelope glycoprotein (Env) on pseudovirus (HIV-1)

Row | Substance | IC50 [2] | IC50 [3] | IC50 [4] | IC50 [5] | IC50 [6] | IC50 [7] | IC50 [8] | IC50 [9] | IC50 [10] | IC50 [11] | IC50 [12] | IC50 [13] | neutralization IC50 [24] | neutralization IC50 [25] | neutralization IC50 [26] | neutralization IC50 [27] | neutralization IC50 [2] | neutralization IC50 [3] | IC50 [22] | IC50, pseudovirus neutralization [28] | other results
1 | VRC01 (antibody) | 0.835 µg/mL | 1.72 µg/mL | 0.228 µg/mL | 0.95 µg/mL | 0.043 µg/mL | 0.091 µg/mL | 0.344 µg/mL | 0.124 µg/mL | > 50 µg/mL | 0.084 µg/mL | 0.031 µg/mL | 0.197 µg/mL | > 50 µg/mL | – | – | – | – | – | – | – | IC50 [1]: 0.034 µg/mL; neutralization IC50 [14]: 0.156 µg/mL; neutralization IC50 [15]: 0.587 µg/mL; neutralization IC50 [16]: 1.03 µg/mL; neutralization IC50 [17]: 0.141 µg/mL; neutralization IC50 [18]: 0.328 µg/mL; neutralization IC50 [19]: 0.424 µg/mL; neutralization IC50 [20]: 0.275 µg/mL; neutralization IC50 [21]: 0.377 µg/mL; IC50, pseudovirus neutralization [22]: 0.517 µg/mL; neutralization IC50 [23]: 0.179 µg/mL
2 | 5145_B14 (PGT-127) (antibody) | – | – | – | – | – | – | – | – | – | – | – | – | – | > 50 µg/mL | > 50 µg/mL | > 50 µg/mL | > 50 µg/mL | > 50 µg/mL | > 50 µg/mL | 0.113 µg/mL | IC50, pseudovirus neutralization [29]: > 50 µg/mL; IC50, pseudovirus neutralization [30]: > 50 µg/mL; IC50, pseudovirus neutralization [31]: > 50 µg/mL; IC50, pseudovirus neutralization [32]: > 50 µg/mL; IC50, pseudovirus neutralization [33]: 7.7 µg/mL; IC50, pseudovirus neutralization [34]: 0.009 µg/mL; IC50, pseudovirus neutralization [35]: > 50 µg/mL; IC50, pseudovirus neutralization [36]: > 50 µg/mL; IC50, pseudovirus neutralization [37]: > 50 µg/mL; IC50, pseudovirus neutralization [38]: 0.429 µg/mL; IC50, pseudovirus neutralization [39]: > 50 µg/mL; Fold IC50 increase relative to wild-type [40]: 1.7 fold; IC50, pseudovirus neutralization [24]: > 50 µg/mL
3 | 4838_L06 (PGT-121) (antibody) | – | – | – | – | – | – | – | – | – | – | – | – | – | > 50 µg/mL | > 50 µg/mL | > 50 µg/mL | > 50 µg/mL | > 50 µg/mL | 0.931 µg/mL | 0.004 µg/mL | IC50 (ug/ml), neutralizing activity [41]: > 10 µg/mL; IC50 (ug/ml), neutralizing activity [42]: > 10 µg/mL; IC50, pseudovirus neutralization [29]: 0.115 µg/mL; IC50, pseudovirus neutralization [30]: > 50 µg/mL; IC50, pseudovirus neutralization [31]: 0.02 µg/mL; IC50, pseudovirus neutralization [32]: 3.17 µg/mL; IC50, pseudovirus neutralization [33]: 3.99 µg/mL; IC50, pseudovirus neutralization [34]: 0.009 µg/mL; IC50, pseudovirus neutralization [35]: > 50 µg/mL; IC50, pseudovirus neutralization [36]: > 50 µg/mL; IC50, pseudovirus neutralization [37]: 0.004 µg/mL; IC50, pseudovirus neutralization [38]: 0.011 µg/mL; IC50, pseudovirus neutralization [39]: 0.124 µg/mL; IC50 (ug/ml), neutralizing activity [43]: > 10 µg/mL; IC50, pseudovirus neutralization [24]: > 50 µg/mL
4 | PGT-143 (4980_N08) (antibody) | 13.6 µg/mL | 0.135 µg/mL | 18.9 µg/mL | 0.076 µg/mL | > 50 µg/mL | 1.11 µg/mL | > 50 µg/mL | 34 µg/mL | > 50 µg/mL | 0.156 µg/mL | > 50 µg/mL | > 50 µg/mL | > 50 µg/mL | – | – | – | – | – | – | – | –
5 | PGT-142 (4995_E20) (antibody) | 6.7 µg/mL | 0.08 µg/mL | 12.4 µg/mL | 0.044 µg/mL | > 50 µg/mL | 0.383 µg/mL | > 50 µg/mL | 12.1 µg/mL | > 50 µg/mL | 0.081 µg/mL | > 50 µg/mL | 21.7 µg/mL | > 50 µg/mL | – | – | – | – | – | – | – | –
